Experiments:
[1] = target: the molecule itself; test: size exclusion chromatography (Superdex 200 10/300 GL), self-association
Description: FIG. 5. Multimeric complexes increase AP regulatory activity of MFHR1 in human serum. A) Size exclusion chromatography (Superdex 200 10/300 GL) of bovine serum albumin (BSA), serum plasma derived FH (hFH) and MFHR1. The three compositions of BSA mixture presented different retention volumes based on molecular mass, which was I. BSA trimer (198 kDa, 10.35 ml), II. BSA dimer (132 kDa, 11.45 ml) and III. BSA monomer (66 kDa, 13.4 ml). […] Theoretical trimer (II. 10.7), dimer (III. 11.4) intermediates (IV.-V.) or monomeric (IV. 13.5) MFHR1 are indicated in the elution profile. B) Analysis of MFHR1 after elution from SEC column as performed in A. 20 μl protein from fractions was loaded on a 10% SDS-PAGE and silver stained C) Afterwards, single or pooled MFHR1 SEC fractions were added into human serum at 10 nM and AP activation was proceeded by incubation in LPS coated wells using AP specific buffer conditions. Regulatory efficiency of MFHR1 fractions was analyzed by measuring C5b-9 complex formation. AP activity of untreated control serum was set to 100%.

[2] = target: C5 (complement component C5) (UniProt P01031 19-673; P01031 678-1676); test: ELISA, hFH (133 nM) immobilised, C5 in solution, detected with monoclonal C5 antibodies
C5 (complement component C5), sequence (P01031 19-673 limits assumed, chain 1 of 2): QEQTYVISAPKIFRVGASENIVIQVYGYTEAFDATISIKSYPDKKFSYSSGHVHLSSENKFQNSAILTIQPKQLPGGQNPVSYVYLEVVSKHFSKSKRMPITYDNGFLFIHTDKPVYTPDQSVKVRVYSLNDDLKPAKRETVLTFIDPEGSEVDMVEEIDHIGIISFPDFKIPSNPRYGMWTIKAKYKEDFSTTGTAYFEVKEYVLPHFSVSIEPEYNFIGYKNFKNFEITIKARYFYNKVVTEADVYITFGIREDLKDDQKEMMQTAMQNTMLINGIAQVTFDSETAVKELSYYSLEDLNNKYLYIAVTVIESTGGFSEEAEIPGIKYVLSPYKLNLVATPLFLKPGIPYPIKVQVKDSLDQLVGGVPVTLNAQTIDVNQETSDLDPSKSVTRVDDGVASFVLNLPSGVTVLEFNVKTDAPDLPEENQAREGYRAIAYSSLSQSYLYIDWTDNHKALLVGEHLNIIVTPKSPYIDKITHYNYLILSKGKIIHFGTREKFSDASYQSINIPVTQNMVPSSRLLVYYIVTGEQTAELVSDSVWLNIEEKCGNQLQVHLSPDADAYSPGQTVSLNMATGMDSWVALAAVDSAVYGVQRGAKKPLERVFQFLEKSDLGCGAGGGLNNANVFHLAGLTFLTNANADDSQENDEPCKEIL
C5 (complement component C5), sequence (P01031 678-1676 limits assumed, chain 2 of 2): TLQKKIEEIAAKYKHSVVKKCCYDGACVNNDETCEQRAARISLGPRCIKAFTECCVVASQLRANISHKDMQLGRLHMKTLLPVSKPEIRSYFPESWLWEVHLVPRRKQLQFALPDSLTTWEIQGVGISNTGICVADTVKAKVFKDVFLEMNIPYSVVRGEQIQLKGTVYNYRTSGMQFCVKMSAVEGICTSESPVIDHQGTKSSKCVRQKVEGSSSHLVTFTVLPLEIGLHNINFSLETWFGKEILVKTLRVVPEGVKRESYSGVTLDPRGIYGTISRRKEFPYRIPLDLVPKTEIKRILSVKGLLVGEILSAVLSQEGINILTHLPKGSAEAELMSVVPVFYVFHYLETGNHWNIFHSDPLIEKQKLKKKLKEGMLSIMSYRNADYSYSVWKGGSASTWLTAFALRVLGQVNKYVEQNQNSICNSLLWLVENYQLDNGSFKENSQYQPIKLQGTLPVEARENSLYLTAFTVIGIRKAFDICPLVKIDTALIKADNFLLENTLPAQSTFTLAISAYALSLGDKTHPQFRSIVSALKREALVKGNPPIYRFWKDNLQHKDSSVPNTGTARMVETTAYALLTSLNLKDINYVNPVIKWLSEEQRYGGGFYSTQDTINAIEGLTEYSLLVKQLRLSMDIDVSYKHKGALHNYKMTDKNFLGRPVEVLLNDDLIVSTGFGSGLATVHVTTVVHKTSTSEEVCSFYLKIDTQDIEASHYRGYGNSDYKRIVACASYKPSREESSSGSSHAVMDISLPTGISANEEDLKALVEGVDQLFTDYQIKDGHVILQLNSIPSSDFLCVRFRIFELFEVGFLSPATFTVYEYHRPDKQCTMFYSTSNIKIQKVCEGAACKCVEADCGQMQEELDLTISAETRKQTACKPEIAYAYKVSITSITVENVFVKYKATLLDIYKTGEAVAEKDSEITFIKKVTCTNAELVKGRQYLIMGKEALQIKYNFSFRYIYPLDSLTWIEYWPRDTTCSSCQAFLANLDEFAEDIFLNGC
Description: FIG. 3. MFHR1 binds C5 and regulates terminal pathway activation by inhibition of the C5 convertase/C5 cleavage and MAC formation. A) MFHR1 binds to C5 as determined by ELISA. Equimolar amounts of MFHR1, full length FHR1, hFH or BSA (133 nM) were immobilized to Nunc plates and incubated with increasing concentrations (10, 20, 40 μg/ml) of C5. Binding was detected using monoclonal C5 antibodies and HRP-labelled secondary antibodies. Data are mean±SD from n=3 experiments B) MFHR1 inhibits AP activation by blockade of C5 cleavage. Cobra venom factor (CVF) C5 convertase was generated on sheep erythrocytes (sE) after adding Factor B (FB) and Factor D (FD). Hemolysis was induced after adding C5, C6, C7, C8 and C9 components and detected at 414 nm. […] C) MFHR1 inhibits formation of the membrane attack complex (MAC) on sE. MAC formation on sE was induced by incubation with C5b6, C7, C8 and C9 components and detected by hemolysis of cells. Preincubation of C5b6 with MFHR1, FHR1 or Eculizumab inhibited hemolysis at significant levels compared to hFH or BSA. […] In B and C control without regulator (w/o) was set as 100%. All data represent mean values ±SD of 3 separate experiments. ***P<0.001 vs. w/o control, one-way ANOVA with Bonferroni multiple comparison test.

| Binder | binding result [1] | binding result [2] |
| --- | --- | --- |
| MFHR1 (His-tag - FHR1(SCR1-2)-FH(SCR1-4)-FH(SCR19-20)) (other, Recombinant fusion protein expressed in SF9 insect cells (baculovirus); By size exclusion chromatography it runs mostly as a multimer; also called MFHR1 with His tag) ADLGSHHHHHHHHHHDYDRSFCDFPKINHGILYDEEKYKPFSQVPTGEVFYYSCEYNFVSPSKSFWTRITCTEEGWSPTPKCLRLCFFPFVENGHSESSGQTHLEGDTVQIICNTGYRLQNNENNISCVERGWSTPPKCRSEDCNELPPRRNTEILTGSWSDQTYPEGTQAIYKCRPGYRSLGNVIMVCRKGEWVALNPLRKCQKRPCGHPGDTPFGTFTLTGGNVFEYGVKAVYTCNEGYQLLGEINYRECDTDGWTNDIPICEVVKCLPVTAPENGKIVSSAMEPDREYHFGQAVRFVCNSGYKIEGDEEMHCSDDGFWSKEKPKCVEISCKSPDVINGSPISQKIIYKENERFQYKCNMGYEYSERGDAVCTESGWRPLPSCEDSTGKCGPPPPIDNGDITSFPLSVYAPASSVEYQCQNLYQLEGNKRITCRNGQWSEPPKCLHPCVISREIMENYNIALRWTAKQKLYSRTGESVEFVCKRGYRLSSRSHTLRTTCWDGKLEYPTCAKR | binds | – |
| human plasma derived Factor H (hFH) (other, Purified from human plasma, so the mature protein; also called FHplasma; plasma purified FH) EDCNELPPRRNTEILTGSWSDQTYPEGTQAIYKCRPGYRSLGNVIMVCRKGEWVALNPLRKCQKRPCGHPGDTPFGTFTLTGGNVFEYGVKAVYTCNEGYQLLGEINYRECDTDGWTNDIPICEVVKCLPVTAPENGKIVSSAMEPDREYHFGQAVRFVCNSGYKIEGDEEMHCSDDGFWSKEKPKCVEISCKSPDVINGSPISQKIIYKENERFQYKCNMGYEYSERGDAVCTESGWRPLPSCEEKSCDNPYIPNGDYSPLRIKHRTGDEITYQCRNGFYPATRGNTAKCTSTGWIPAPRCTLKPCDYPDIKHGGLYHENMRRPYFPVAVGKYYSYYCDEHFETPSGSYWDHIHCTQDGWSPAVPCLRKCYFPYLENGYNQNYGRKFVQGKSIDVACHPGYALPKAQTTVTCMENGWSPTPRCIRVKTCSKSSIDIENGFISESQYTYALKEKAKYQCKLGYVTADGETSGSITCGKDGWSAQPTCIKSCDIPVFMNARTKNDFTWFKLNDTLDYECHDGYESNTGSTTGSIVCGYNGWSDLPICYERECELPKIDVHLVPDRKKDQYKVGEVLKFSCKPGFTIVGPNSVQCYHFGLSPDLPICKEQVQSCGPPPELLNGNVKEKTKEEYGHSEVVEYYCNPRFLMKGPNKIQCVDGEWTTLPVCIVEESTCGDIPELEHGWAQLSSPPYYYGDSVEFNCSESFTMIGHRSITCIHGVWTQLPQCVAIDKLKKCKSSNLIILEEHLKNKKEFDHNSNIRYRCRGKEGWIHTVCINGRWDPEVNCSMAQIQLCPPPPQIPNSHNMTTTLNYRDGEKVSVLCQENYLIQEGEEITCKDGRWQSIPLCVEKIPCSQPPQIEHGTINSSRSSQESYAHGTKLSYTCEGGFRISEENETTCYMGKWSSPPQCEGLPCKSPPEISHGVVAHMSDSYQYGEEVTYKCFEGFGIDGPAIAKCLGEKWSHPPSCIKTDCLSLPSFENAIPMGEKKDVYKAGEQVTYTCATYYKMDGASNVTCINSRWTGRPTCRDTSCVNPPTVQNAYIVSRQMSKYPSGERVRYQCRSPYEMFGDEEVMCLNGNWTEPPQCKDSTGKCGPPPPIDNGDITSFPLSVYAPASSVEYQCQNLYQLEGNKRITCRNGQWSEPPKCLHPCVISREIMENYNIALRWTAKQKLYSRTGESVEFVCKRGYRLSSRSHTLRTTCWDGKLEYPTCAKR | – | no binding (tested: 10, 20, 40 µg/ml of C5) |
